Laboratory results published in US20090305419.

What was measured:
Test in all cases: cell_activity
[1] = system: CCR5 ZFN SBS#8266, L6a linker (artificial (zinc finger-FokI)); conditions: average of 2; ZFN pair
[2] = system: CCR5 ZFN SBS#8266, L7a linker (artificial (zinc finger-FokI)); conditions: ZFN pair
[3] = system: mROSA-targeted ZFN pair, Wt/L7a linkers (artificial (zinc finger-FokI)); conditions: Neuro2A; mock 0.4
[4] = system: mROSA-targeted ZFN pair, Wt/Wt linkers (artificial (zinc finger-FokI)); conditions: Neuro2A; mock 0.4; repeats 23.2 and 18.7
[5] = system: rat IgM-targeted ZFN pair, ZC linker (artificial (zinc finger-FokI)); conditions: rat C6 cells, CEL-I
[6] = system: rat IgM-targeted ZFN pair, with L7a linker (artificial (zinc finger-FokI)); conditions: rat C6 cells, CEL-I
[7] = system: CCR5 ZFN SBS#8266, wild-type ZC linker (artificial (zinc finger-FokI)); conditions: average of 2; ZFN pair
Sequence of CCR5 ZFN SBS#8266, wild-type ZC linker (artificial (zinc finger-FokI)) (chain, as listed by the source): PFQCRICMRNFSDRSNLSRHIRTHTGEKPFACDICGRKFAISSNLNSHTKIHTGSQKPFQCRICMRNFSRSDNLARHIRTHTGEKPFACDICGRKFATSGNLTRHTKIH

Sequence of CCR5 ZFN SBS#8266, L6a linker (artificial (zinc finger-FokI)) (chain, as listed by the source): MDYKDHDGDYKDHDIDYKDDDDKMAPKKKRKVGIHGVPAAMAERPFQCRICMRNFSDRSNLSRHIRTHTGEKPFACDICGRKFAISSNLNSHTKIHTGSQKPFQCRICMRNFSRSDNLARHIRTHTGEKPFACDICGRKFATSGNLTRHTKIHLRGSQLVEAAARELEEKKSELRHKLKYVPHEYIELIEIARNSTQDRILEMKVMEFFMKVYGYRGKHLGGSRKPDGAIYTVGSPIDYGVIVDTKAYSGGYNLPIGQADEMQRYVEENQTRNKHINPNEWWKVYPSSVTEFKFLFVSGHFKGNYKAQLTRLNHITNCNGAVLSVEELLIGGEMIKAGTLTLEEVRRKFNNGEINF

## CCR5 ZFN target, 7 bp gap
[1]
  activity: 5.1 % NHEJ
[2]; average of 2
  activity: 39.6 % NHEJ

## mROSA target, 6 bp gap
[3]
  activity: 7.5 % NHEJ
[4]
  activity: 22.6 % NHEJ

## rat IgM target, 6 bp gap
[5]
  activity: 1.93 % NHEJ
[6]
  activity: 2.43 % NHEJ

## CCR5 ZFN target, 8 bp gap
[2]; average of 2 as printed
  activity: 6.1 % NHEJ

## CCR5 ZFN target, 5 bp gap
[1]
  activity: 39.3 % NHEJ
[7]
  activity: 35 % NHEJ

## CCR5 ZFN target, 6 bp gap
[1]
  activity: 25.4 % NHEJ
[2]; average of 2
  activity: 31.8 % NHEJ
[7]
  activity: 11.1 % NHEJ

## CCR5 ZFN target, 4 bp gap
[7]
  activity: 1.2 % NHEJ
